Assay results as given in the Human Domainome abundance scans (Beltran et al. 2025).
± gives the uncertainty stated by the source.

B1: SAM and SH3 domain-containing protein 1, residues 630 to 700; numbered along this chain, O94885 (parent)
chain: GRPPQPKSVEDLLDRINLKEHMPTFLFNGYEDLDTFKLLEEEDLDELNIRDPEHRAVLLTAVELLQEYDSN

Variants of: B1
Experiment: abundance fitness (aPCA) (normalised: wild type 0, dead -1); higher = more abundant; growth selection in yeast, the domain comes from the species named
Conditions: Homo sapiens

Abundance fitness of substitutions, site by site:
D34: K -0.291 ± 0.054 | L -0.67 ± 0.045 | M -0.518 ± 0.058 | N -0.123 ± 0.041 | P -0.664 ± 0.056 | Q -0.116 ± 0.048 | R -0.465 ± 0.045 | S -0.158 ± 0.035 | T -0.415 ± 0.043 | V -0.719 ± 0.055 | W -0.704 ± 0.082 | Y -0.679 ± 0.059
T35: A 0.067 ± 0.042 | C -0.206 ± 0.053 | D 0.108 ± 0.051 | E -0.211 ± 0.067 | F -0.911 ± 0.099 | G -0.442 ± 0.062 | H 0.022 ± 0.047 | L -0.515 ± 0.047 | M -0.312 ± 0.059 | N -0.159 ± 0.049 | R 0.135 ± 0.037 | S 0.104 ± 0.035 | V -0.492 ± 0.056 | W -0.973 ± 0.12 | Y -0.587 ± 0.064
F36: A -0.717 ± 0.067 | C -0.849 ± 0.087 | E -0.678 ± 0.097 | G -0.642 ± 0.064 | H -0.638 ± 0.081 | I -0.531 ± 0.069 | K -1.19 ± 0.14 | L -0.365 ± 0.043 | M -0.354 ± 0.063 | N -0.719 ± 0.091 | P -0.9 ± 0.092 | Q -0.705 ± 0.11 | R -0.794 ± 0.058 | S -0.749 ± 0.06 | T -0.64 ± 0.064 | V -0.495 ± 0.051 | W -0.712 ± 0.089 | Y -0.878 ± 0.095
K37: A -0.226 ± 0.047 | C -0.449 ± 0.072 | D -0.791 ± 0.1 | E -0.64 ± 0.097 | F -0.946 ± 0.11 | G -0.669 ± 0.073 | H -0.76 ± 0.086 | I -0.848 ± 0.093 | L -0.555 ± 0.053 | M -0.16 ± 0.057 | N -0.799 ± 0.074 | Q -0.478 ± 0.073 | R -0.211 ± 0.046 | S -0.337 ± 0.045 | T -0.615 ± 0.062 | Y -1.11 ± 0.12
L38: A -0.063 ± 0.04 | D -0.175 ± 0.053 | E 0.03 ± 0.051 | F -0.234 ± 0.059 | G -0.061 ± 0.038 | H 0.029 ± 0.05 | I -0.76 ± 0.096 | K 0.117 ± 0.053 | M -0.011 ± 0.05 | N 0.054 ± 0.053 | P -0.857 ± 0.081 | Q 0.175 ± 0.044 | R -0.041 ± 0.037 | S -0.005 ± 0.036 | T 0.23 ± 0.041 | V -0.492 ± 0.046 | Y -0.117 ± 0.056
L39: A -0.881 ± 0.068 | D -0.799 ± 0.081 | E -0.771 ± 0.1 | F -0.973 ± 0.079 | G -0.812 ± 0.067 | H -0.812 ± 0.072 | I 0.058 ± 0.041 | K -0.928 ± 0.11 | M -0.319 ± 0.055 | N -0.851 ± 0.075 | Q -0.892 ± 0.098 | R -0.861 ± 0.059 | S -0.818 ± 0.053 | T -0.79 ± 0.059 | V -0.422 ± 0.049 | W -1.19 ± 0.14 | Y -0.929 ± 0.078
E40: C 0.186 ± 0.042 | D 0.011 ± 0.057 | F -1.01 ± 0.089 | G 0.171 ± 0.044 | I -0.431 ± 0.055 | K 0.347 ± 0.046 | M -0.246 ± 0.056 | N 0.196 ± 0.041 | P -0.914 ± 0.075 | Q 0.222 ± 0.049 | R 0.337 ± 0.035 | S 0.252 ± 0.032 | T 0.398 ± 0.035 | V -0.088 ± 0.047 | W -0.933 ± 0.098 | Y -0.829 ± 0.069
E41: A -0.075 ± 0.048 | C -0.483 ± 0.067 | D -0.419 ± 0.075 | F -0.971 ± 0.091 | G -0.465 ± 0.07 | H -0.7 ± 0.076 | I -0.588 ± 0.072 | K -0.302 ± 0.066 | L -0.635 ± 0.05 | M -0.578 ± 0.073 | N -0.408 ± 0.061 | R -0.499 ± 0.054 | S -0.34 ± 0.042 | V -0.495 ± 0.056 | W -0.567 ± 0.091
E42: A 0.104 ± 0.04 | C -0.222 ± 0.053 | F -0.743 ± 0.067 | G 0.013 ± 0.049 | H 0.055 ± 0.041 | I -0.477 ± 0.055 | K 0.283 ± 0.048 | L -0.6 ± 0.045 | M -0.476 ± 0.066 | N -0.094 ± 0.046 | P -0.124 ± 0.042 | Q -0.023 ± 0.049 | S 0.102 ± 0.034 | T 0.035 ± 0.039 | V -0.302 ± 0.046 | W -0.618 ± 0.08 | Y -0.539 ± 0.056
D43: A -0.325 ± 0.045 | C -0.713 ± 0.079 | E -0.503 ± 0.067 | F -1.05 ± 0.085 | G -0.444 ± 0.053 | H -0.201 ± 0.042 | I -0.584 ± 0.061 | K -0.117 ± 0.044 | L -0.894 ± 0.049 | M -0.594 ± 0.056 | N -0.058 ± 0.044 | P -0.939 ± 0.065 | Q -0.142 ± 0.041 | R -0.385 ± 0.043 | S -0.359 ± 0.039 | T -0.19 ± 0.039 | V -0.456 ± 0.047 | W -0.928 ± 0.097 | Y -0.953 ± 0.076
L44: A -0.779 ± 0.061 | C -0.598 ± 0.075 | D -0.819 ± 0.087 | E -0.757 ± 0.077 | F -0.38 ± 0.061 | G -0.819 ± 0.065 | H -0.941 ± 0.1 | K -0.746 ± 0.076 | M -0.702 ± 0.073 | N -0.822 ± 0.081 | P -0.764 ± 0.073 | Q -0.873 ± 0.089 | R -0.904 ± 0.065 | S -0.875 ± 0.062 | V -0.791 ± 0.059 | W -0.773 ± 0.085 | Y -0.755 ± 0.085
D45: A -0.622 ± 0.057 | C -0.416 ± 0.053 | E -0.276 ± 0.06 | F -0.48 ± 0.049 | G -0.812 ± 0.077 | H -0.538 ± 0.053 | I 0.037 ± 0.039 | K -0.135 ± 0.048 | L -0.113 ± 0.033 | M -0.247 ± 0.051 | N -0.272 ± 0.045 | P -0.833 ± 0.063 | Q -0.557 ± 0.059 | R -0.415 ± 0.043 | S -0.544 ± 0.04 | T -0.38 ± 0.042 | V -0.151 ± 0.041 | W -0.499 ± 0.064 | Y -0.496 ± 0.052
L47: A -0.698 ± 0.053 | C -0.577 ± 0.055 | D -0.828 ± 0.073 | E -0.765 ± 0.094 | F -0.828 ± 0.061 | H -0.788 ± 0.062 | I -0.671 ± 0.058 | K -0.781 ± 0.1 | M 0.017 ± 0.048 | P -0.799 ± 0.066 | Q -0.805 ± 0.092 | R -0.922 ± 0.055 | V -0.781 ± 0.051 | W -0.959 ± 0.092 | Y -0.783 ± 0.065
N48: A -0.343 ± 0.088 | C -0.273 ± 0.12 | D 0.024 ± 0.093 | E 0.084 ± 0.099 | F -0.983 ± 0.19 | G 0.197 ± 0.057 | H -0.056 ± 0.12 | I -0.985 ± 0.24 | L -0.741 ± 0.1 | M -0.516 ± 0.14 | P -0.837 ± 0.16 | Q -0.393 ± 0.13 | R -0.319 ± 0.08 | S -0.388 ± 0.08 | T -0.916 ± 0.2 | V -1.21 ± 0.2 | W -0.775 ± 0.15
I49: A -0.98 ± 0.072 | C -0.728 ± 0.072 | E -0.79 ± 0.082 | F -0.851 ± 0.069 | G -0.785 ± 0.062 | H -0.784 ± 0.068 | K -0.863 ± 0.08 | L -0.868 ± 0.052 | N -0.926 ± 0.076 | P -1 ± 0.08 | Q -0.92 ± 0.083 | R -0.831 ± 0.053 | S -0.876 ± 0.052 | T -0.863 ± 0.065 | V -0.398 ± 0.042 | W -0.823 ± 0.081 | Y -0.869 ± 0.07
R50: A -0.301 ± 0.043 | D -0.057 ± 0.051 | E -0.146 ± 0.057 | F -0.071 ± 0.049 | G -0.371 ± 0.05 | H 0.072 ± 0.046 | I -0.11 ± 0.052 | K 0.032 ± 0.058 | L 0.091 ± 0.035 | N -0.027 ± 0.046 | Q 0.039 ± 0.048 | S -0.06 ± 0.036 | T 0.183 ± 0.037 | W 0.003 ± 0.055 | Y -0.012 ± 0.047
D51: A -0.659 ± 0.056 | C -0.396 ± 0.052 | E -0.369 ± 0.063 | G -0.75 ± 0.063 | H -0.447 ± 0.052 | L -0.632 ± 0.042 | M -0.845 ± 0.077 | N -0.159 ± 0.049 | Q -0.307 ± 0.048 | R -0.611 ± 0.046 | S -0.49 ± 0.04 | T -0.505 ± 0.048 | V -0.553 ± 0.051 | W -0.862 ± 0.079 | Y -0.774 ± 0.06
P52: C -0.565 ± 0.064 | E -0.317 ± 0.059 | F -1.04 ± 0.11 | G -0.71 ± 0.057 | L -0.61 ± 0.042 | N -0.569 ± 0.062 | Q -0.424 ± 0.057 | R -0.499 ± 0.041 | S -0.354 ± 0.039 | T -0.437 ± 0.045 | V -0.5 ± 0.05 | W -0.782 ± 0.071 | Y -1.02 ± 0.097
E53: A -0.089 ± 0.041 | C -0.23 ± 0.06 | F -0.673 ± 0.079 | H -0.09 ± 0.049 | I -0.542 ± 0.063 | K -0.131 ± 0.048 | L -0.486 ± 0.045 | N -0.146 ± 0.05 | P -0.924 ± 0.09 | Q -0.051 ± 0.049 | R -0.266 ± 0.045 | S -0.126 ± 0.037 | T -0.207 ± 0.043 | V -0.283 ± 0.046 | W -0.575 ± 0.075 | Y -0.557 ± 0.063
H54: A -0.169 ± 0.039 | C -0.678 ± 0.058 | D -0.02 ± 0.044 | E 0.13 ± 0.052 | F -1.03 ± 0.085 | G -0.832 ± 0.055 | I -0.458 ± 0.054 | K -0.496 ± 0.078 | L -0.849 ± 0.055 | M -0.501 ± 0.064 | N -0.635 ± 0.064 | P -0.733 ± 0.066 | Q 0.059 ± 0.048 | R -0.823 ± 0.053 | S -0.408 ± 0.04 | T -0.093 ± 0.045 | V -0.189 ± 0.037 | W -0.96 ± 0.09 | Y -0.857 ± 0.074
R55: A -0.9 ± 0.082 | C -0.888 ± 0.087 | D -0.77 ± 0.085 | E -0.522 ± 0.081 | F -0.864 ± 0.093 | G -1.02 ± 0.086 | I -0.696 ± 0.078 | L -1.01 ± 0.071 | M -0.896 ± 0.1
